# Source: PMC4607316 (Nature, 2015)
# Substitutions are numbered along the chain they refer to. In names and notes the source's numbering stands.
# B1: Syt1 E295A, Y338W (natural protein, rat, UniProt P21707 1-421, looked up)
# chain: MVSASHPEALAAPVTTVATLVPHNATEPASPGEGKEDAFSKLKQKFMNELHKIPLPPWALIAIAIVAVLLVVTCCFCVCKKCLFKKKNKKKGKEKGGKNAINMKDVKDLGKTMKDQALKDDDAETGLTDGEEKEEPKEEEKLGKLQYSLDYDFQNNQLLVGIIQAAELPALDMGGTSDPYVKVFLLPDKKKKFETKVHRKTLNPVFNEQFTFKVPYSELGGKTLVMAVYDFDRFSKHDIIGEFKVPMNTVDFGHVTEEWRDLQSAEKEEQEKLGDICFSLRYVPTAGKLTVVILAAKNLKKMDVGGLSDPYVKIHLMQNGKRLKKKKTTIKKNTLNPWYNESFSFEVPFEQIQKVQVVVTVLDYDKIGKNDAIGKVFVGYNSTGAELRHWSDMLANPRRPIAQWHTLQVEEEVDAMLAVKK
# B2: Syt1 R398Q, R399Q (natural protein, rat, UniProt P21707 1-421, looked up)
# chain: B1 chain with A295E, W338Y, R398Q, R399Q
# B3: Syt1 R281A, R398A, R399A (natural protein, rat, UniProt P21707 1-421, looked up)
# chain: B1 chain with R281A, A295E, W338Y, R398A, R399A
# Biological target: syntaxin-1A (endogenous, cultured mouse neurons) (mouse (endogenous in cultured …, UniProt O35526 1-288))
# Sequence (O35526 whole entry): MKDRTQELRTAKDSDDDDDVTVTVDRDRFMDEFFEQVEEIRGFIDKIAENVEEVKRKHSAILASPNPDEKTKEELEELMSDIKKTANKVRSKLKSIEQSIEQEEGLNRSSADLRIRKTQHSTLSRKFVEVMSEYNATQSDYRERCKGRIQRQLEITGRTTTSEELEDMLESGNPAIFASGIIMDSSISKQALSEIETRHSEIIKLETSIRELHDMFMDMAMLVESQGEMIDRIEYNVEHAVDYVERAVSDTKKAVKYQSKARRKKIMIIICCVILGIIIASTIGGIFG
# Assay: co-IP
row,Binder,reduction of co-immunoprecipitated Syt1 against Syt1 WT
1,B1,~50%
2,B2,~50%
3,B3,~50%
